How the values were obtained:
Assay in all cases: cell-based or functional assay
[1] = molecular target: HIV-1 JR-CSF Env I326A (HIV-1 isolate JR-CSF) (UniProt P20871)
[2] = molecular target: HIV-1 JR-CSF Env N332A (HIV-1 isolate JR-CSF) (UniProt P20871)
[3] = molecular target: Env of the clade A HIV-1 pseudoviruses of the cross-clade 162-pseudovirus panel (n = 26)
[4] = molecular target: HIV-1 JR-CSF Env T202A (HIV-1 JR-CSF) (UniProt P20871)
[5] = molecular target: HIV-1 JR-CSF Env K421A (HIV-1 (isolate JR-CSF)) (UniProt P20871)
[6] = molecular target: HIV-1 JR-CSF Env D325A (HIV-1 isolate JR-CSF) (UniProt P20871)
[7] = molecular target: HIV-1 JR-CSF Env K305A (HIV-1 JR-CSF) (UniProt P20871)
[8] = molecular target: HIV-1 JR-CSF Env R315A (HIV-1 isolate JR-CSF) (UniProt P20871)
[9] = molecular target: HIV-1 Env of isolate 92TH021 (HIV-1)
[10] = molecular target: HIV-1 JR-CSF Env T320A (HIV-1 isolate JR-CSF) (UniProt P20871)
[11] = molecular target: HIV-1 JR-CSF Env K343A (HIV-1 isolate JR-CSF) (UniProt P20871)
[12] = molecular target: HIV-1 JR-CSF Env N241A (HIV-1 JR-CSF) (UniProt P20871)
[13] = molecular target: HIV-1 JR-CSF Env N386A (HIV-1 isolate JR-CSF) (UniProt P20871)
[14] = molecular target: HIV-1 JR-CSF Env N295A (HIV-1 JR-CSF) (UniProt P20871)
[15] = molecular target: HIV-1 JR-CSF Env R327A (HIV-1 isolate JR-CSF) (UniProt P20871)
[16] = molecular target: HIV-1 JR-CSF Env Q422A (HIV-1 (isolate JR-CSF)) (UniProt P20871)
[17] = molecular target: HIV-1 JR-CSF Env D417A (HIV-1 (isolate JR-CSF)) (UniProt P20871)
[18] = molecular target: HIV-1 JR-CSF Env F317A (HIV-1 isolate JR-CSF) (UniProt P20871)
[19] = molecular target: Env of the clade G HIV-1 pseudoviruses of the cross-clade 162-pseudovirus panel (n = 15)
[20] = molecular target: HIV-1 JR-CSF Env N396A (HIV-1 (isolate JR-CSF)) (UniProt P20871)
[21] = molecular target: Env of the clade AG HIV-1 pseudoviruses of the cross-clade 162-pseudovirus panel (n = 10)
[22] = molecular target: HIV-1 JR-CSF Env S393A (HIV-1 (isolate JR-CSF)) (UniProt P20871)
[23] = molecular target: HIV-1 JR-CSF Env N262A (HIV-1 JR-CSF) (UniProt P20871)
[24] = molecular target: HIV-1 JR-CSF Env V292A (HIV-1 JR-CSF) (UniProt P20871)
[25] = molecular target: HIV-1 JR-CSF Env S334A (HIV-1 isolate JR-CSF) (UniProt P20871)
[26] = molecular target: HIV-1 Env of isolate JR-CSF (HIV-1) (UniProt P20871)
[27] = molecular target: Env of the clade D HIV-1 pseudoviruses of the cross-clade 162-pseudovirus panel (n = 25)
[28] = molecular target: HIV-1 JR-CSF Env T303A (HIV-1 JR-CSF) (UniProt P20871)
[29] = molecular target: HIV-1 JR-CSF Env N411A (HIV-1 (isolate JR-CSF)) (UniProt P20871)
[30] = molecular target: HIV-1 JR-CSF Env T388A (HIV-1 (isolate JR-CSF)) (UniProt P20871)
[31] = molecular target: HIV-1 JR-CSF Env T319A (HIV-1 isolate JR-CSF) (UniProt P20871)
[32] = molecular target: HIV-1 JR-CSF Env Q337A (HIV-1 isolate JR-CSF) (UniProt P20871)
[33] = molecular target: HIV-1 JR-CSF Env T394A (HIV-1 (isolate JR-CSF)) (UniProt P20871)
[34] = molecular target: HIV-1 JR-CSF Env I414A (HIV-1 (isolate JR-CSF)) (UniProt P20871)
[35] = molecular target: HIV-1 JR-CSF Env N276A (HIV-1 JR-CSF) (UniProt P20871)
[36] = molecular target: HIV-1 JR-CSF Env I307A (HIV-1 JR-CSF) (UniProt P20871)
[37] = molecular target: HIV-1 JR-CSF Env N301A (HIV-1 JR-CSF) (UniProt P20871)
[38] = molecular target: HIV-1 JR-CSF Env N339A (HIV-1 isolate JR-CSF) (UniProt P20871)
[39] = molecular target: HIV-1 JR-CSF Env E321aA (HIV-1 isolate JR-CSF) (UniProt P20871)

B1: PGT-130 (antibody, V domains shown)
VH: QVQLQESGPGLVKPAETLSLTCSVSGESINTGHYYWGWVRQVPGKGLEWIGHIHYTTAVLHNPSLKSRLTIKIYTLRNQITLRLSNVTAADTAVYHCVRSGGDILYYYEWQKPHWFSPWGPGIHVTVSS
VL: QSALTQPPSASGSLGQSVTISCNGTSSDIGGWNFVSWYQQFPGRAPRLIIFEVNKRPSGVPGRFSGSKSGNSASLTVSGLQSDDEGQYFCSSLFGRWDVVFGGGTKLTVL
Fold IC50 increase relative to wild-type [1]: 1.3 fold
Fold IC50 increase relative to wild-type [2]: 0.6 fold
Median IC50 against viruses neutralized with an IC50 <50 µg/ml [3]: 0.09 µg/mL
Fold IC50 increase relative to wild-type [4]: 1.2 fold
Fold IC50 increase relative to wild-type [5]: 2.9 fold
Fold IC50 increase relative to wild-type [6]: > 1000 fold
Fold IC50 increase relative to wild-type [7]: 6.9 fold
Fold IC50 increase relative to wild-type [8]: 0.6 fold
Polyclonal Transfectant Neutralization Index (well 5147 N6) [9]: 4.2
Primary Neutralization Index (B cell culture well 5147 N6) [9]: 538
Fold IC50 increase relative to wild-type [10]: 0.9 fold
Fold IC50 increase relative to wild-type [11]: 1.1 fold
Fold IC50 increase relative to wild-type [12]: 0.6 fold
Fold IC50 increase relative to wild-type [13]: 0.1 fold
Fold IC50 increase relative to wild-type [14]: 0.7 fold
Fold IC50 increase relative to wild-type [15]: 2.4 fold
Fold IC50 increase relative to wild-type [16]: 1 fold
Fold IC50 increase relative to wild-type [17]: 1 fold
Fold IC50 increase relative to wild-type [18]: 17 fold
Median IC50 against viruses neutralized with an IC50 <50 µg/ml [19]: 4.14 µg/mL
Fold IC50 increase relative to wild-type [20]: 1 fold
Median IC50 against viruses neutralized with an IC50 <50 µg/ml [21]: 0.04 µg/mL
Fold IC50 increase relative to wild-type [22]: 0.7 fold
Fold IC50 increase relative to wild-type [23]: 0.7 fold
Fold IC50 increase relative to wild-type [24]: 0.9 fold
Fold IC50 increase relative to wild-type [25]: 0.5 fold
Polyclonal Transfectant Neutralization Index (well 5147 N6) [26]: 1.24
Primary Neutralization Index (B cell culture well 5147 N6) [26]: 19.3
Median IC50 against viruses neutralized with an IC50 <50 µg/ml [27]: 0.65 µg/mL
Fold IC50 increase relative to wild-type [28]: > 250 fold
Fold IC50 increase relative to wild-type [29]: 0.6 fold
Fold IC50 increase relative to wild-type [30]: 1 fold
Fold IC50 increase relative to wild-type [31]: 1.6 fold
Fold IC50 increase relative to wild-type [32]: 1 fold
Fold IC50 increase relative to wild-type [33]: 1.2 fold
Fold IC50 increase relative to wild-type [34]: 0.7 fold
Fold IC50 increase relative to wild-type [35]: 1 fold
Fold IC50 increase relative to wild-type [36]: 1000 fold
Fold IC50 increase relative to wild-type [37]: > 1000 fold
Fold IC50 increase relative to wild-type [38]: 0.2 fold
Fold IC50 increase relative to wild-type [39]: 1.7 fold

B2: PGT-128 (antibody, V domains shown)
VH: QPQLQESGPTLVEASETLSLTCAVSGDSTAACNSFWGWVRQPPGKGLEWVGSLSHCASYWNRGWTYHNPSLKSRLTLALDTPKNLVFLKLNSVTAADTATYYCARFGGEVLRYTDWPKPAWVDLWGRGTLVTVSS
VL: QSALTQPPSASGSPGQSITISCTGTSNNFVSWYQQHAGKAPKLVIYDVNKRPSGVPDRFSGSKSGNTASLTVSGLQTDDEAVYYCGSLVGNWDVIFGGGTKLTVL
Fold IC50 increase relative to wild-type [1]: 1.6 fold
Fold IC50 increase relative to wild-type [2]: 1.4 fold
Median IC50 against viruses neutralized with an IC50 <50 µg/ml [3]: 0.01 µg/mL
Fold IC50 increase relative to wild-type [4]: 1.1 fold
Fold IC50 increase relative to wild-type [5]: 2 fold
Fold IC50 increase relative to wild-type [6]: 0.5 fold
Fold IC50 increase relative to wild-type [7]: 1.8 fold
Fold IC50 increase relative to wild-type [8]: 0.4 fold
Polyclonal Transfectant Neutralization Index (well 5114 A19) [9]: 10
Primary Neutralization Index (B cell culture well 5114 A19) [9]: 6.6
Fold IC50 increase relative to wild-type [10]: 1 fold
Fold IC50 increase relative to wild-type [11]: 1 fold
Fold IC50 increase relative to wild-type [12]: 0.7 fold
Fold IC50 increase relative to wild-type [13]: 1.1 fold
Fold IC50 increase relative to wild-type [14]: 1 fold
Fold IC50 increase relative to wild-type [15]: 2.5 fold
Fold IC50 increase relative to wild-type [16]: 0.2 fold
Fold IC50 increase relative to wild-type [17]: 0.5 fold
Fold IC50 increase relative to wild-type [18]: 0.8 fold
Median IC50 against viruses neutralized with an IC50 <50 µg/ml [19]: 0.04 µg/mL
Fold IC50 increase relative to wild-type [20]: 0.9 fold
Median IC50 against viruses neutralized with an IC50 <50 µg/ml [21]: 0.67 µg/mL
Fold IC50 increase relative to wild-type [22]: 1.4 fold
Fold IC50 increase relative to wild-type [23]: 1.6 fold
Fold IC50 increase relative to wild-type [24]: 2.1 fold
Fold IC50 increase relative to wild-type [25]: 1.4 fold
Polyclonal Transfectant Neutralization Index (well 5114 A19) [26]: 136
Primary Neutralization Index (B cell culture well 5114 A19) [26]: 77.5
Median IC50 against viruses neutralized with an IC50 <50 µg/ml [27]: 0.02 µg/mL
Fold IC50 increase relative to wild-type [28]: > 500 fold
Fold IC50 increase relative to wild-type [29]: 0.7 fold
Fold IC50 increase relative to wild-type [30]: 1 fold
Fold IC50 increase relative to wild-type [31]: 0.5 fold
Fold IC50 increase relative to wild-type [32]: 0.7 fold
Fold IC50 increase relative to wild-type [33]: 3 fold
Fold IC50 increase relative to wild-type [34]: 1.4 fold
Fold IC50 increase relative to wild-type [35]: 0.6 fold
Fold IC50 increase relative to wild-type [36]: 3.7 fold
Fold IC50 increase relative to wild-type [37]: 10.7 fold
Fold IC50 increase relative to wild-type [38]: 0.8 fold
Fold IC50 increase relative to wild-type [39]: 1.3 fold

From US20200024330A1
